{"source": "paper PMC4036514", "about": "“Requirement for A-type cyclin-dependent kinase and cyclins for the terminal division in the stomatal lineage of Arabidopsis”", "binders": {"B1": {"name": "pCDKA-A (element A) (dsDNA)", "DNA 1": "TAATAAATAAAATTGTACCAAATTAATGCGGTTAGGTAAATTCAATTTATTGGAAATTA", "DNA 2": "TAATTTCCAATAAATTGAATTTACCTAACCGCATTAATTTGGTACAATTTTATTTATTA"}, "B2": {"name": "pCDKA-C+D (elements C and D) (dsDNA)", "DNA 1": "TTACTCTCAATTAGTCAATCCCCTTCCCTAGTCCTCCTCTCTTCAAGCTTTTCACAGAA", "DNA 2": "TTCTGTGAAAAGCTTGAAGAGAGGAGGACTAGGGAAGGGGATTGACTAATTGAGAGTAA"}, "B3": {"name": "pCDKA-B (element B) (dsDNA)", "DNA 1": "CTTGACACAAAAAAAAAAAAAGAAGAAAGAAAAAACCCTTACTCTCAATTAGTCAATCC", "DNA 2": "GGATTGACTAATTGAGAGTAAGGGTTTTTTCTTTCTTCTTTTTTTTTTTTTGTGTCAAG"}}, "key": {"[1]": {"molecular_target": "T1, His-MYB88 (Arabidopsis thaliana, UniProt F4IRB4 1-484)", "T1 sequence": "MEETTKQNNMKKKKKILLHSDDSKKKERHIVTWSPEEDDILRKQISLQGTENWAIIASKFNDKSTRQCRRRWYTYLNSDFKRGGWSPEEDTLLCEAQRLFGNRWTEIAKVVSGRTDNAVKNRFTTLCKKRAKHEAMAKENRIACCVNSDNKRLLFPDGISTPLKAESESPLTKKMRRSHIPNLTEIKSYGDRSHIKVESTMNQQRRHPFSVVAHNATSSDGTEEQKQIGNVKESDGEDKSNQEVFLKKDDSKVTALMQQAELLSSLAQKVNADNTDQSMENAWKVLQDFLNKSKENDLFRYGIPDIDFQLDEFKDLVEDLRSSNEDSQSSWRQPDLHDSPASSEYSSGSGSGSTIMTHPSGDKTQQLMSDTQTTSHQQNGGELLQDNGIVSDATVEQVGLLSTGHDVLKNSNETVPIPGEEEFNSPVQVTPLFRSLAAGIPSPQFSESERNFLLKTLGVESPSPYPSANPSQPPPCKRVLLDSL", "assay": "EMSA; EMSA: 1x LightShift binding buffer, 2.5% glycerol, 50 mM KCl, 5 mM MgCl2, 0.05% NP-40, 10 mM EDTA, room temperature 20 min; pH not stated", "conditions": "protein: recombinant; tags: His (pET-28a); label: 3' biotin; blunt"}, "[2]": {"molecular_target": "T2, His-FLP (FOUR LIPS) (Arabidopsis thaliana, UniProt Q94FL6 1-436)", "T2 sequence": "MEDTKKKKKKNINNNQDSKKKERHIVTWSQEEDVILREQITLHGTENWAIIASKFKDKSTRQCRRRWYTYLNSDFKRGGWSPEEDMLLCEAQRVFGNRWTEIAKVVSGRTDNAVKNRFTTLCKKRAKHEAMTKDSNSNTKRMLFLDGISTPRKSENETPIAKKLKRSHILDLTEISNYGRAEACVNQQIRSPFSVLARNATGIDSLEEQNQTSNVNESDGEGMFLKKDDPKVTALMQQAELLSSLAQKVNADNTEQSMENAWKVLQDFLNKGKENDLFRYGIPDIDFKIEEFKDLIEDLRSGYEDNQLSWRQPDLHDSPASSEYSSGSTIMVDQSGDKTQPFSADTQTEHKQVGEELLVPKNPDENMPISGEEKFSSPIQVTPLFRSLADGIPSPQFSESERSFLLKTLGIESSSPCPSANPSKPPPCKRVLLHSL", "assay": "EMSA; EMSA: 1x LightShift binding buffer, 2.5% glycerol, 50 mM KCl, 5 mM MgCl2, 0.05% NP-40, 10 mM EDTA, room temperature 20 min; pH not stated", "conditions": "protein: recombinant; tags: His (pET-28a); label: 3' biotin; blunt"}}}
{"binder": "B1", "values": [{"measurement": "binding result", "setting": "[1]", "result": "binds"}, {"measurement": "binding result", "setting": "[2]", "result": "binds"}]}
{"binder": "B2", "values": [{"measurement": "binding result", "setting": "[1]", "result": "binds"}, {"measurement": "binding result", "setting": "[2]", "result": "binds"}]}
{"binder": "B3", "values": [{"measurement": "binding result", "setting": "[1]", "result": "binds"}, {"measurement": "binding result", "setting": "[2]", "result": "binds"}]}
